Reference: patent publication US10456446B2, “Use of human small leucine zipper protein in osteogenesis procedure” (Korea University Research and Business Foundation, priority 2013, dated 2019)

Assays:
[1] = test system: primary MSCs and C3H10T1/2 cells; test: Osteoblast differentiation in primary MSCs and C3H10T1/2 cells; type: cell-based; details: differentiation medium for 8 days
Description: (§1) Primary human mesenchymal stem cells (MSCs), C3H10T1/2, 293T and MEF cells were cultured in a DMEM to which thermally inactivated 10% FBS and penicillin (100 U/mL)/streptomycin (100 μg/mL) were added. All cell types were cultured in a humidified incubator containing CO2 5% under a temperature condition of 37° C. In order to induce osteoblast differentiation, the medium was exchanged with a DMEM in which 50 μg/mL of ascorbic acid, 10 mM of β-glycerophosphate and 10% FBS were contained for 8 days. The differentiation medium was changed once every two days.
C3H10T1/2 and 293T cells were plated in a 12-well culture dish at a density of 2×10^5 cells/well and incubated for 24 hours. Then, according to instructions of the manufacturer, the cells were transfected with a 0.2 μg of reporter genes and 0.1 to 0.5 μg of a laboratory plasmid using Lipofectamine 2000 or Genefectine. After 24 hours, the cells were cultured in a serum-free DMEM with or without 10 nM of rosiglitazone. siRNAs were prepared using sLZIP and HDAC target sequences (Table 1). […]
Therefore, in order to characterize a potential role of sLZIP in the transcriptional activity of Runx2 by inhibiting the transcriptional activity of PPARγ2, the transcriptional activity of Runx2 was examined. […] A promoter activity was measured by luciferase analysis. […]

MEF cells = test: Osteoblast differentiation in MEF cells, alizarin red staining; type: cell-based; details: differentiation medium for 8 days
Description: as §1
Therefore, in order to characterize a potential role of sLZIP in the transcriptional activity of Runx2 by inhibiting the transcriptional activity of PPARγ2, the transcriptional activity of Runx2 was examined. For this purpose, 293T cells were temporarily transfected with Runx2 (0.5 μg), β-galactosidase (0.1 μg), 6 copies of Runx2 response elements (0.2 μg) and sLZIP at different contents (0.1 μg to 0.5 μg) (FIG. 7A). PPARγ2 (0.5 μg), β-galactosidase, Runx2, 6 copies of Runx2 response elements and sLZIP (0.5 μg) were expressed in the 293T cells (FIG. 7B). 293T cells were temporarily transfected with HDAC3 (0.5 μg), Runx2, β-galactosidase, 6 copies of Runx2 response elements and sLZIP at different contents (0.25 and 0.5 μg) (FIG. 7C). A promoter activity was measured by luciferase analysis. […]

sLZIP TG mouse embryos = test: Cartilage development, alcian blue staining of sLZIP TG mouse embryos on E12.5; type: in vivo; details: E12.5, compared with wild type
From the text: In order to generate human sLZIP transgenic (TG) mice, sLZIP genes were cloned into a pCMV-flag expression vector. The sLZIP TG mice were generated by Macrogen, Inc (Seoul, Korea). Transgenic founders were mated with wild type C57BL/6 mice to produce F1 heterozygotes. F1-F4 generations were genetically screened for transgenes at an age of 2 weeks old. The following two primers were used to amplify genomic DNA in order to identify wild type and TG mice: 5′-GGACGATGATGACAAGGACT-3′ (SEQ ID NO: 25) and 5′-GTCAGAGGAGTACATGCTGCT-3′(SEQ ID NO: 26).
When a bone is initially developed during an embryo, cartilage is formed and hardened to a bone according to a so-called ossification (or osteogenesis) process. In order to examine whether sLZIP-mediated osteogenesis is associated with cartilage development, an effect of sLZIP in chondrocyte differentiation was examined. For this purpose, ATDC5 cells were temporarily transfected with sLZIP at different contents (0.1 μg to 0.5 μg). Total RNA was extracted from the cells, and an mRNA expression level of a chondrocyte marker was measured using RT-PCR analysis (FIG. 8A) and real-time PCR (FIG. 8B). GAPDH was used as an internal control group. An experiment was repeated three times. […] Total RNA was extracted from the mature osteoclasts, and an mRNA expression level of an osteoclast marker was measured using real-time PCR (FIG. 8D). […]

B1: sLZIP: human small leucine-zipper protein, isoform of LZIP, 354 amino acids, no transmembrane domain, GenBank FJ263669, SEQ ID NO: 1 (protein, listed as Homo sapiens)
chain: MELELDAGDQDLLAFLLEESGDLGTAPDEAVRAPLDWALPLSEVPSDWEVDDLLCSLLSPPASLNILSSSNPCLVHHDHTYSLPRETVSMDLESESCRKEGTQMTPQHMEELAEQEIARLVLTDEEKSLLEKEGLILPETLPLTKTEEQILKRVRRKIRNKRSAQESRRKKKVYVGGLESRVLKYTAQNMELQNKVQLLEEQNLSLLDQLRKLQAMVIEISNKTSSSSMYSSDTRGSLPAEHGVLSRQLRALPSEDPYQLELPALQSEVPKDSTHQWLDGSDCVLQAPGNTSCLLHYMPQAPSAEPPLEWPFPDLFSEPLCRGPILPLQANLTRKGGWLPTGSPSVILQDRYSG
[1]
  osteoblast differentiation: increased osteoblast differentiation
MEF cells
  osteoblast differentiation and bone nodule formation: promoted osteoblast differentiation and bone nodule formation
sLZIP TG mouse embryos
  cartilage development of leg and tail: no difference
